Data published in publication PMC9293771.

Target: N-terminally truncated N-terminally His6-tagged human aspartate/asparagine-β-hydroxylase (His6-AspH315–758) (human) (UniProt Q12797)
UniProt Q12797, sequence (Q12797 315-758): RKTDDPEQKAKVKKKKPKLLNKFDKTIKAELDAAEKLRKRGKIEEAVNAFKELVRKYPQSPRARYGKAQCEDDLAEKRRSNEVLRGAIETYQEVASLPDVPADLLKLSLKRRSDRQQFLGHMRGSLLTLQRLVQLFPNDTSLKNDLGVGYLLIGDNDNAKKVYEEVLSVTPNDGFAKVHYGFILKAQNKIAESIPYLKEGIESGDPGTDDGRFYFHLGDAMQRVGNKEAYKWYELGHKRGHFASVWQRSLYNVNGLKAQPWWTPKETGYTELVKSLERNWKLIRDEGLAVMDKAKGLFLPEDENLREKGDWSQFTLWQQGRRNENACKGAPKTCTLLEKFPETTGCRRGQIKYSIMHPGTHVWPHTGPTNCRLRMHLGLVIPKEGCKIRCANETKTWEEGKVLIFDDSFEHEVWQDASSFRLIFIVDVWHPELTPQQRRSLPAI

Substance	Km of AspH for the peptide substrate, steady-state kinetics of hydroxylation by SPE-MS (0.1 μM His6-AspH315–758, 50 mM Hepes, pH 7.5, 20 °C) [μM]
hLYPD6B-CP65–83, thioether-bridged cyclic peptide derived from the LU domain of human LYPD6B (from UniProt Q8NI32 65-83)	47
hHMCN1-CP5164–5182, thioether-bridged cyclic peptide derived from EGFD2 of human hemicentin-1 (from UniProt Q96RW7 5164-5182)	7.9
